Here are results for eight molecules from US20240101668A1 (WUGEN, published 2024).

Changes are numbered by the printed parent chain.

The labels stand for the following.
B1: Polypeptide No. 26 (scFv, V domains shown)
VH: QVQLVQSGAEVKKPGASVKVSCKASGYTFTENEMHWVRQAPGQGLEWMGWMNPNSGNTGYAQKFQGRVTMTRDTSTSTVYMELSSLRSEDTAVYYCAREGGDWPYYYMDVWGKGTTVTVSS
VL: DIQMTQSPSSLSASVGDRVTITCQASQDIRNYLNWYQQKPGKAPKLLIYAASSLQSGVPSRFSGSGSGTDFTLTISSLQPEDFATYYCQQTSSTPLTFGPGTKVDIKR
notes: scFv
B2: Polypeptide No. 27 (scFv, V domains shown)
VH: QVQLVQSGAEVKKPGASVKVSCKASGYTLTGYYMHWVRQAPGQGLEWMGWMNPSSGNTGYAQQFQGRVTMTRDTSTSTVYMELSSLRSEDTAVYYCARASSDRYYYDGVWYFDLWGRGTLVTVSS
VL: B1 VL with Q24R, Y32N, N34G, A50G, S92Y, T94S, L96P, P100Q, V104L, D105E
notes: scFv
B3: Polypeptide No. 275 (scFv, V domains shown)
VH: QVQLVQSGAEVKKPGSSVKVSCKASGYTFTSYYMHWVRQAPGQGLEWMGWMNPYSGNTGYAQKFQGRVTITADESTSTAYMELSSLRSEDTAVYYCARVGSGWYSDYWGQGTLVTVSS
VL: not shown
notes: scFv
B4: Polypeptide No. 271 (scFv, V domains shown)
VH: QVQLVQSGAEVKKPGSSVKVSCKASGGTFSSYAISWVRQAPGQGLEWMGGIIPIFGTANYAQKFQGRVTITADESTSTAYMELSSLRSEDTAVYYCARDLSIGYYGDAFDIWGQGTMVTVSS
VL: EIVMTQSPATLSVSPGERATLSCRASQSVSYNQLAWYQQKPGQAPRLLIYDISSRAAGIPARFSGSGSGTEFTLTISSLQSEDFAVYYCQQYGGLPATFGQGTRLEIKR
notes: scFv
B5: Polypeptide No. 274 (scFv, V domains shown)
VH: QVQLVQSGAEVKKPGSSVKVSCKASGYTFTYRYLHWVRQAPGQGLEWMGRITPISGTTNYAQKFQGRVTITADESTSTAYMELSSLRSEDTAVYYCAKDSGQLAHYGMDVWGQGTTVTVSS
VL: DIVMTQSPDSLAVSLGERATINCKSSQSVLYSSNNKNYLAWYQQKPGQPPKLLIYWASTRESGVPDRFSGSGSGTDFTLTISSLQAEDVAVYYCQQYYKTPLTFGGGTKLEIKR
notes: scFv
B6: Polypeptide No. 285 (scFv, V domains shown)
VH: QVQLVQSGAEVKKPGSSVKVSCKASGYSFTNYYMHWVRQAPGQGLEWMGGIIPVFGTTTYSQTFQGRVTITADESTSTAYMELSSLRSEDTAVYYCARESQDGDFDYWGQGTLVTVSS
VL: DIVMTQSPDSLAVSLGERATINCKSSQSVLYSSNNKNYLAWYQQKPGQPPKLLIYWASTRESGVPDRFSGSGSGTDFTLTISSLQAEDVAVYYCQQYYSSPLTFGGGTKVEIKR
notes: scFv
B7: Polypeptide No. 272 (scFv, V domains shown)
VH: QVQLVQSGAEVKKPGSSVKVSCKASGYIFTNYYIQWVRQAPGQGLEWMGGIIPIFGTVGYAQKFQGRVTITADESTSTAYMELSSLRSEDTAVYYCARGRIGGGNDYWGQGTLVTVSS
VL: B1 VL with D28Y, R30S, A50D, Q55E, T91S, S92Y, L96Y, P100Q, V104L, D105E
notes: scFv
B8: Polypeptide No. 277 (scFv, V domains shown)
VH: QVQLVQSGAEVKKPGSSVKVSCKASGYTFTGYYMHWVRQAPGQGLEWMGWIDPNSGGTNYAQKFQGRVTITADESTSTAYMELSSLRSEDTAVYYCARDVDTAMVTDYWGRGTLVTVSS
VL: EIVMTQSPATLSVSPGERATLSCRASQSVDNLVGWYQQKPGQAPRLLIYDISSRATGIPARFSGSGSGTEFTLTISSLQSEDFAVYYCQQYGRSPITFGQGTRLEIKR
notes: scFv

T2 sequence (P20138 18-259): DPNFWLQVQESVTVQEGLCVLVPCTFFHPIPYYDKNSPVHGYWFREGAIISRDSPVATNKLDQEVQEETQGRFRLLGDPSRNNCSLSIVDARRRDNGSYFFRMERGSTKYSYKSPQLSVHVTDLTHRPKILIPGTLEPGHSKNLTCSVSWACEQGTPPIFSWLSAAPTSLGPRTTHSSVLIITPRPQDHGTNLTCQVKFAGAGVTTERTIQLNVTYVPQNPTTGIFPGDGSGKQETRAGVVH

The target of the first test is T1, huCD33-G69-Fc recombinant protein (human, UniProt P20138 18-259).
T1 construct: extracellular domain; also called CD33 R69G
T1 sequence (P20138 18-259 R69G): as the sequence (P20138 18-259) above, with R52G counted along it
As to the kind of experiment: BLI.
Procedure: (§1) Discovered scFvs were analyzed for binding to huCD33-R69-His or huCD33-G69-Fc recombinant proteins (for anti-CD33 scFvs; for CLL-1 scFvs, huCLL1-K244-Avi-Tev-His or huCLL1-Q244-Avi-Tev-His were used; for FLT3, huFLT3-T227-His or huFLT3-M227-Fc were used) using BLI on a ForteBio Octet HTX instrument. Streptavidin-coated biosensors were loaded with biotinylated anti-V5 tag monoclonal antibody for 5 min and were then quenched and blocked with 20 μM amine-PEG2-Biotin for 5 min. scFvs were captured on biosensors from scFv clone periplasmic extracts. huCD33 (or huCLL-1, or huFLT3) proteins were then associated with the captured scFvs for 2 minutes, followed by dissociation with buffer (1×HBST [10 mM HEPES pH 7.4, 150 mM NaCl, 0.05% Tween-20], 1 g/L BSA) for 5 minutes. […] Data was fitted with 1:1 Langmuir equation and off-rate values were reported.
As to B1, the binding result is reported as “binds”.

In the case of B2, the binding result was “binds”.

The next test addresses T2, huCD33-R69-His recombinant protein (human, UniProt P20138 18-259).
T2 construct: extracellular domain
Nature of the test: BLI.
Procedure: as §1
Take B1: the binding result was “no binding”.

For the molecule B2, the binding result is “no binding”.

A further test deals with T3, huFLT3-T227-His (human, UniProt P36888 27-543).
T3 construct: extracellular domain; also called FLT3 WT
Nature of the test: BLI.
Procedure: as §1
Turning to B3, the binding result was “binds”.

As for B4, the binding result was “binds”.

As to B5, the binding result is given as “binds”.

In the case of B6, the binding result is “binds”.

With B7, the binding result is “binds”.

B8: the binding result was “binds”.

The target in the next test is T4, huFLT3-M227-Fc (human, UniProt P36888 27-543).
T4 construct: extracellular domain; also called FLT3 Mutant
Nature of the test: BLI. Background: In BLI a coated tip is dipped into the sample, and binding shifts an interference pattern.
Procedure: as §1
As to B3, the binding result is “binds”.

Consider B4, for which the binding result is recorded as “binds”.

On to B5, for which the binding result was “binds”.

On to B6, for which the binding result is reported as “binds”.

Take B7: the binding result is on record as “binds”.

For the molecule B8, the binding result is given as “binds”.

The target of another test is T5, huCD33-G69 stably expressed on Jurkat cells (human, UniProt P20138 18-364).
T5 construct: whole, on cells; >200,000 receptors per cell; also called CD33 Mutant; CD33 R69G
T5 sequence (P20138 18-364 R69G): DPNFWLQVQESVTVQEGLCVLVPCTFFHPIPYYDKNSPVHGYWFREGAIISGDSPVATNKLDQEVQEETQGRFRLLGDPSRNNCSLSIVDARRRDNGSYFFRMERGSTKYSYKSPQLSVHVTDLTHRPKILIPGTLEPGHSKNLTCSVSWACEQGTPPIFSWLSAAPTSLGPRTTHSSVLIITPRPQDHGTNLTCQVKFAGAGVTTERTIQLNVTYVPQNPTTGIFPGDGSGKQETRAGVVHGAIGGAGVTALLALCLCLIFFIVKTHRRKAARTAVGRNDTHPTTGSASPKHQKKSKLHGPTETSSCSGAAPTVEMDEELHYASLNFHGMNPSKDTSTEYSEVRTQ
As to the kind of experiment: FACS on cells.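 Note: fixed Jurkat cells bearing either CD33 variant, barcoded by dye, exposed to myc-tagged scFv periplasmic extracts, detected with anti-myc PE antibody and read by flow cytometry.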
Procedure: (§2) Jurkat cells were engineered to stably express either the huCD33-R69 or huCD33-G69 variant at >200,000 receptors per cell. Parental, huCD33-R69, and huCD33-G69 Jurkat cell lines were stained with differing levels of CellTrace Violet Cell Proliferation Kit (ThermoFisher, cat. #C34557) to barcode each cell line. Barcoded Jurkat cell lines were fixed with paraformaldehyde and incubated with myc-labeled scFv periplasmic extracts and a secondary anti-myc PE-conjugated monoclonal antibody. Appropriate positive and negative controls were used. Stained cells were analyzed by flow cytometry (CytoFLEX, Beckman Coulter, Inc.) and binding was assessed by change in PE mean fluorescence intensity (MFI) of the barcoded cell populations.
B1: the “geometric mean MFI fold change over Jurkat parental” value (shortened to “geometric mean MFI fold change”) was in the range of 2 to 10 fold.

For B2, the “geometric mean MFI fold change” value lay within 2 to 10 fold.

The target of the next test is T6, huCD33-R69 stably expressed on Jurkat cells (human, UniProt P20138 18-364).
T6 construct: whole, on cells; >200,000 receptors per cell; also called CD33 WT; CD33^ARG69
T6 sequence (P20138 18-364): as the sequence (P20138 18-364 R69G) above, with G52R counted along it
As to the kind of experiment: FACS on cells.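 Note: fixed Jurkat cells bearing either CD33 variant, barcoded by dye, exposed to myc-tagged scFv periplasmic extracts, detected with anti-myc PE antibody and read by flow cytometry.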
Procedure: as §2
For the molecule B1, the “geometric mean MFI fold change” value was under 2 fold.

B2: the “geometric mean MFI fold change” value is under 2 fold.
